Experimental data published in the supplement of paper PMC9170038.

Test system: MS2 coat protein
Experiment: apparent KD of MS2 coat protein; designed switch direction (-1 OFF switch, 1 ON switch): -1; higher = weaker reporter binding
Outline: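 An oligonucleotide input, 200 uM small-molecule ligand, or no input was present during titration of SNAP-549-labelled MS2 coat protein, which was doubled from 0.7 or 1.5 nM to 3 µM. Designed RNA switches had been transcribed on Illumina chips by stalled E. coli RNA polymerase. Apparent KD per design is the median over clusters of curves fitted to normalised cluster fluorescence.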

[1] = Eterna round: R95, input ligand: FMN 200 uM
[2] = Eterna round: R95, input ligand: microRNA oligo, concentration not stated
[3] = Eterna round: R95, input ligand: none
[4] = input ligand: microRNA oligo, concentration not stated

Sequence | apparent KD of MS2 coat protein [1] [µM] | apparent KD of MS2 coat protein [2] [µM] | apparent KD of MS2 coat protein [3] [µM] | apparent KD of MS2 coat protein (input ligand: FMN 200 uM) [µM] | apparent KD of MS2 coat protein [4] [µM] | apparent KD of MS2 coat protein (input ligand: none) [µM]
GGUUGGUGAGGAUAUACAUGAGGAUCACCCAUGUGAGAGAAAGAAGUGAGGAAGAAAAGUAGAAGGCGCUGACG [salish99_ex3_r3_054] (puzzle: Exclusion 3) | 0.0871 | 0.0404 | 0.0542 | – | – | –
CAGUACUGAGGAUAUACAUGAGGAUCACCCAUGUCUUAAAAGUAGGAUACUACUAUUAGUAGAAGGCAGUACUG [Fiskers Ex 3 828 mod 24] (Eterna round: R96, puzzle: Exclusion 3) | – | – | – | 0.0385 | 0.0123 | 0.017
UGGUAACAUGAGGAUCACCCAUGUCAGGAUAUCAGGAAGAGGAGAGGAGAGGAGAAGAUGAGAAGGGACUAUAU [Excluse me! 12 - Jieux - Exclusion 1] (puzzle: Exclusion 1) | – | 0.0198 | – | – | – | –
UACGUGUCAGGAUAUGCGUUGGUACAGAAGUAUGGCCAACGGCAGAAGGGACAUGAGGAUCACCCAUGUCGUCG [Eternabot (L1) Solution 60] (Eterna round: R97, puzzle: Exclusion 4) | – | – | – | 0.139 | – | 0.0268
AGUACUAACACGGCAGUGUUAGUACAAUAAGCUUGUGAAACAUGAGGAUCACCCAUGUCCUCAUAAGCUCGUCUUAU [salish99_TOv2_r3_065] (puzzle: Sensor v3, turn-off variant 2) | 0.0186 | 0.423 | 0.0154 | – | – | –
GGUGGACAUGAGGAUCACCCAUGUGAGGAUAUCGGCCGGUUCGUGGUGGCUGGCCUCUCGAGAAGGCGCAUAGU [Exclusion 1 V73] (puzzle: Exclusion 1) | – | 0.0441 | – | – | – | –
AUAAUGUCAGGAUAUCAGUCGUACAGCCUCGGCUGUACGACUGAGAAGGGACAUGAGGAUCACCCAUGUGGUCA [E4/6-A2] (Eterna round: R97, puzzle: Exclusion 4) | – | – | – | 0.0424 | – | 0.155
AGUACUAACACGGGUGUGUUAGUACAAUAAGCUUGUGAAACAUGAGGAUCACCCAUGUCCUCAUAAGCUCGUCUUAU [salish99_TOv2_r3_075] (puzzle: Sensor v3, turn-off variant 2) | 0.0154 | 0.926 | 0.0144 | – | – | –
GGUGUGAGGCAGGAUAUGCUAUAUGUUAGUAAUGCAGAAGGGUCUACAUGAGGAUCACCCAUGUGUGCGGUAGA [Ex6 #4] (Eterna round: R97, puzzle: Exclusion 6) | – | – | – | 0.345 | – | 0.139
GAGAAAUUAUAGGAUAUCGUAUGGAUAAUUUAACGAGAAGGAUGAACAUGAGGAUCACCCAUGUGGUAUCAUGG [JL-ex6-3.13] (puzzle: Exclusion 6) | 0.262 | 0.327 | 0.331 | – | – | –
UUUGCAAGCUAUAGAUCCCACAUGAGGAUCACCCAUGUUGCUGCCGUGAGGUAGCAUUUAACUAUUGCUCGUCUUAU [JL TOV1 3.51] (Eterna round: R97, puzzle: Sensor, turn-off variant 1) | – | – | – | 0.19 | – | 0.245
AAAAUACAUGAGGAUCACCCAUGUUAGGAUAUGCAAAGCCCAGUUAGCUUUUGGGUAGGUAGAAGGGACGGGUA [Reenen] (puzzle: Exclusion 1) | – | 0.0215 | – | – | – | –
AACUUCUGAGGAUAUACUUAGAUUUACAUGAGGAUCACCCAUGUUCCUCUUUGUAUAAAUGUAGAAGGCAGAAGAA [JL-ex5-4.38 Malcolm mod] (Eterna round: R97, puzzle: Exclusion 5) | – | – | – | 0.381 | – | 0.0453
AUUUACGGAGGAUAUACUUGAGGAUCACCCAAGUGGAGUCCCGUUUGGGCGGUAAAUAGUAGAAGGCCGUCCCA [jl-ex3-4.45 ViennaUCT mod] (Eterna round: R97, puzzle: Exclusion 3) | – | – | – | 0.0202 | – | 0.0133
AGUACUAACACGGAAGUGUUAGUACUAUAAGCUUGUGUUACAUGAGGAUCACCCAUGUCCUCAUAAGCUCGUCUUAA [Mat - Sensor v3 - Turn-off var 2 - D70] (puzzle: Sensor v3, turn-off variant 2) | 0.0351 | 0.127 | 0.0364 | – | – | –
AUAUCACAUGAGGAUCACCCAUGUCAGGAUAUGAUACUAUGUACUUCGGUACAUAGUAUCAGAAGGGAUAUGAA [Ex1-3: 66] (Eterna round: R96, puzzle: Exclusion 1) | – | – | – | 0.0833 | 0.0292 | 0.0403
ACAUGAGGAUCACCCAUGUGACCACGAUGGCUGAUGUAAAGACAGGAUAUGUGUGAAUAUCUAUCACAGAAGGGUCUUGACUGG [Deportation 55 - Jieux - Exclusion NG 3] (Eterna round: R96, puzzle: Exclusion NG 3) | – | – | – | 0.0241 | 0.022 | 0.0306
GUGUACAGAGGAUAUAUAUGAGCUAGGAAACUAGCAAACUCACAUGAGGAUCACCCAUGUAGAAGGCUGUACAC [Ex2: 722] (Eterna round: R96, puzzle: Exclusion 2) | – | – | – | 0.22 | 0.0224 | 0.0269
CUUUUGUGAGGAUAUUAGUAGUAAAUAAAUAAAAUUACUACUGAGAAGGCACAUGAGGAUCACCCAUGUUCCUC [salish99_ex4_r3_041] (puzzle: Exclusion 4) | – | 0.0346 | – | – | – | –
UUGCAGUCAUCAGGAUAUAGUAUUACGGCCAUUUAUAUUUUCAUACAUGAGGAUCACCCAUGUCGCUAGAAGGGAUUAUCGAUU [Exclusion NG 2] (Eterna round: R96, puzzle: Exclusion NG 2) | – | – | – | – | 0.0345 | –
CAUGAUUGACGAGGAUAUUGUUCUACAUCACGACGAGAAGGCGUCUGUCACAUGAGGAUCACCCAUGUGAGUCUGGUGAAUGAG [Ex NG1 #82] (Eterna round: R96, puzzle: Exclusion NG 1) | – | – | – | 0.031 | 0.0172 | 0.0218
GUAAUUAUAUAGGAUAUCGAAAGUAUAAUUUAACGAGAAGGAUGAACAUGAGGAUCACCCAUGUGGUAUCAUGG [JL-ex6-3.08] (puzzle: Exclusion 6) | 0.0664 | 0.321 | 0.219 | – | – | –
UUUUAACAUGAGGAUCACCCAUGUGAGGAUAUCGAAAUUUAUAUUAAUAUUAAUUAUACGAGAAGGCACAUUUU [JMF 30] (puzzle: Exclusion 1) | – | 0.084 | – | – | – | –
AAGUACUACAAGCUUUGGGACAUGAGGAUCACCCAUGUUCGUCUUAUUGAUCUAGGUACGCUGACGUACCUAGAUCU [Mat - Sensor v3 - turn-off var 1 - JL Mod - D8] (puzzle: Sensor v3, turn-off variant 1) | 0.0165 | 0.0734 | 0.0132 | – | – | –
AGACGUGCAGUGCUCCUCCACAUGAGGAUCACCCAUGUCACUGAGGAUAUCUGCAGGUAACUGCUGGAGAAGGCAGAAAGAAUG [Atrien] (Eterna round: R96, puzzle: Exclusion NG 3) | – | – | – | 0.0819 | 0.0221 | 0.0295
GUCGUGCGGCAGUGCUGUACGAGUACAUGAGGAUCACCCAUGUAGGAUAUGGUUCGUUUUGCGUGCUAGAAGGGCGUGCGUUUA [Excl-NG3-LRO19] (Eterna round: R96, puzzle: Exclusion NG 3) | – | – | – | 0.0184 | 0.0182 | 0.0212
CAUUGUUAUCGAGGAUAUCGUAUUGAGAUUCUACGAGAAGGCGGACUAAACAUGAGGAUCACCCAUGUGAGACGGAUGCUUGGG [Ex NG1 #32] (Eterna round: R96, puzzle: Exclusion NG 1) | – | – | – | 0.0367 | 0.0223 | 0.0257
AGGUGUAGAGGAUAUCUAUCCUCGCACAUGAGGAUCACCCAUGUCCUGGUCACCAAGGACGGAGAAGGCUACACCA [Omei Ex5 D20] (Eterna round: R97, puzzle: Exclusion 5) | – | – | – | 0.427 | – | 0.773
AGUACUAACACGCUAGUGUUAGUACAAUAAGCUUGUGAAACAUGAGGAUCACCCAUGUCCUCAUAAGCUCGUCUUAU [salish99_TOv2_r3_058] (puzzle: Sensor v3, turn-off variant 2) | 0.0164 | 0.612 | 0.0161 | – | – | –
UUGUUGUAUGUAGGAUAUGCAUAUUGUUAUUAUGCAGAAGGACAUGAGGAUCACCCAUGUAUAUUACUAUUAUGUACUAUAUAU [MOD of Hoglahoo's a different Title] (Eterna round: R96, puzzle: Exclusion NG 1) | – | – | – | 0.106 | 0.0255 | 0.0326
